Patent publication US20120058906A1 (published 2012)

Assays:
[1] = biological target: T1, rHuman IGF-1 sR (insulin-like growth factor-1 soluble receptor), CF (R&D Systems Cat#391-GR) (human, UniProt P08069 31-932); assay: MSD ECL titration, Fab 148.9 nM, blank 218
T1 construct: Bought soluble receptor; also called IGF-R1

[2] = biological target: T2, rHuman HGF R/c-MET/Fc Chimera, CF (R&D Systems Cat#358-MT/CF) (human, UniProt P08581 25-932); assay: MSD ECL titration, Fab 148.9 nM, blank 218
T2 construct: Bought Fc chimera; also called HGF R/Fc; Fc part of the bought chimera not given

[3] = biological target: T3, rHuman Notch-1/Fc Chimera, CF (R&D Systems Cat#3647-TK) (human, UniProt P46531 19-526); assay: MSD ECL titration, Fab 148.9 nM, blank 218
T3 construct: Bought Fc chimera; Fc part of the bought chimera not given

[4] = biological target: T4, rHuman EGF R/Fc Chimera, CF (R&D Systems Cat#344-ER) (human, UniProt P00533 25-645); assay: MSD ECL titration, Fab 148.9 nM, blank 218
T4 construct: Bought Fc chimera; Fc part of the bought chimera not given

[5] = biological target: T5, rHuman Erythropoietin R/Fc Chimera, CF (R&D Systems Cat#963-ER) (human, UniProt P19235 25-250); assay: MSD ECL titration, Fab 148.9 nM, blank 218
T5 construct: Bought Fc chimera; also called EPO R/Fc; EPOR; Fc part of the bought chimera not given
T5 sequence: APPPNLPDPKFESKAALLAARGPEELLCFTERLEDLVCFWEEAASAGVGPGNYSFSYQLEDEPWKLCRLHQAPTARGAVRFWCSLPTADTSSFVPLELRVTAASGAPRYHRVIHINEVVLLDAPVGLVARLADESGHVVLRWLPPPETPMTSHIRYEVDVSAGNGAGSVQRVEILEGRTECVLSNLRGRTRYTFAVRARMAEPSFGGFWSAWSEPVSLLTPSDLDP

[6] = biological target: T6, Recombinant Human DLL4 (R&D Systems Cat#1506-D4/CF) (human, UniProt Q9NR61 27-524); assay: MSD ECL titration, Fab 148.9 nM, blank 218
T6 construct: Bought recombinant protein; also called rHuman DLL4; delta-like protein 4

[7] = biological target: T7, rHuman ErbB2/Fc Chimera, CF (R&D Systems Cat#1129-ER) (human, UniProt P04626 23-652); assay: MSD ECL titration, Fab 148.9 nM, blank 218
T7 construct: Bought Fc chimera; also called HER2/neu; Fc part of the bought chimera not given

[8] = biological target: T8, rHuman P-Cadherin/Fc Chimera, CF (R&D Systems Cat#861-PC) (human, UniProt P22223 108-654); assay: MSD ECL titration, Fab 148.9 nM, blank 218
T8 construct: Bought Fc chimera; Fc part of the bought chimera not given

[9] = biological target: T9, rHuman CD44/Fc Chimera, CF (R&D Systems Cat#3660-CD) (human, UniProt P16070 21-220); assay: MSD ECL titration, Fab 148.9 nM, blank 218
T9 construct: Bought Fc chimera; Fc part of the bought chimera not given

[10] = biological target: T10, rHuman Erythropoietin R/Fc Chimera, CF (R&D Systems Cat#963-ER) (human, UniProt P19235 25-250); assay: ECL (MSD Multi-Spot) binding assay, antigen spotted on plate; Fab 6 nM; blank spot 191
T10 construct: Bought Fc chimera; also called EPO R/Fc; Epo R; Fc part of the bought chimera not given
T10 sequence: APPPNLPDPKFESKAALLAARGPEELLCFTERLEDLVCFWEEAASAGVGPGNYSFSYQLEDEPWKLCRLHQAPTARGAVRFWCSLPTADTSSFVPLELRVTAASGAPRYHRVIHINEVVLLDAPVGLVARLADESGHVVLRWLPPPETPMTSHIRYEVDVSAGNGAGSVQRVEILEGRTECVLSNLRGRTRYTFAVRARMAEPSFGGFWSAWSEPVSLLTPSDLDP

[11] = biological target: T11, rHuman CD44/Fc Chimera, CF (R&D Systems Cat#3660-CD) (human, UniProt P16070 21-220); assay: as above
T11 construct: Bought Fc chimera; Fc part of the bought chimera not given

[12] = biological target: T12, Recombinant Human DLL4 (R&D Systems Cat#1506-D4/CF) (human, UniProt Q9NR61 27-524); assay: as above
T12 construct: Bought recombinant protein; also called delta-like protein 4; rHuman DLL4

[13] = biological target: T13, rHuman ErbB2/Fc Chimera, CF (R&D Systems Cat#1129-ER) (human, UniProt P04626 23-652); assay: as above
T13 construct: Bought Fc chimera; also called HER2/neu; human epidermal growth factor 2 receptor; Fc part of the bought chimera not given

[14] = biological target: T14, rHuman Notch-1/Fc Chimera, CF (R&D Systems Cat#3647-TK) (human, UniProt P46531 19-526); assay: as above
T14 construct: Bought Fc chimera; Fc part of the bought chimera not given

[15] = biological target: T10, rHuman Erythropoietin R/Fc Chimera, CF …; assay: ECL (MSD Multi-Spot) binding assay, antigen spotted on plate; Fab 120 nM; blank spot 363
[16] = biological target: T11, rHuman CD44/Fc Chimera, CF (R&D Systems …); assay: as above
[17] = biological target: T12, Recombinant Human DLL4 (R&D Systems …); assay: as above
[18] = biological target: T15, rHuman P-Cadherin/Fc Chimera, CF (R&D Systems Cat#861-PC) (human, UniProt P22223 108-654); assay: as above
T15 construct: Bought Fc chimera; also called CDH3; Fc part of the bought chimera not given

[19] = biological target: T14, rHuman Notch-1/Fc Chimera, CF (R&D …); assay: as above
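Note: blank spot per well as comparator with Hit at signal to blank ratio of 4 or more.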

B1: Fab VH1-46_IGHD6-6*01_IGHJ1*01 & L6_IGKJ1*01 (Fab, V domains shown)
VH: QVQLVQSGAEVKKPGASVKVSCKASGYTFTSYYMHWVRQAPGQGLEWMGIINPSGGSTSYAQKFQGRVTMTRDTSTSTVYMELSSLRSEDTAVYYCAREEYSSSSAEYFQHWGQGTLVTVSS
VL: not shown
notes: Expressed in E. coli as Fab: heavy chain with CH1 plus Flag and His tags from Plasmid A, kappa light chain constant region from Plasmid C; also called Fab No. 1
An ECL signal [1] of 322, an ECL signal [2] of 205 and an ECL signal [3] of 375 were found for B1 in this work. For the same binder, the ECL signal [4] was 290, the ECL signal [5] was 373 and the ECL signal [6] was 16300. The ECL signal [7] was 247, the ECL signal [8] was 687 and the ECL signal [9] was 348.

B2: Fab VH5-51_IGHD5-18*01>3_IGHJ4*01 & V3-4_IGLJ1*01 (Fab, V domains shown)
VH: EVQLVQSGAEVKKPGESLKISCKGSGYSFTSYWIGWVRQMPGKGLEWMGIIYPGDSDTRYSPSFQGQVTISADKSISTAYLQWSSLKASDTAMYYCARRGYSYGYDYFDYWGQGTLVTVSS
VL: QTVVTQEPSFSVSPGGTVTLTCGLSSGSVSTSYYPSWYQQTPGQAPRTLIYSTNTRSSGVPDRFSGSILGNKAALTITGAQADDESDYYCVLYMGSGISYVFGTGTKVTVL
notes: Tested as a Fab made in E. coli; also called IGHV5-51*03
An ECL signal [10] of 548, an ECL signal [11] of 547 and an ECL signal [12] of 1950 were found for B2 in this work. For the same binder, the ECL signal [13] was 873 and the ECL signal [14] was 464.

B3: Fab VH6-1_IGHD3-3*01_IGHJ4*01 & V4-3_IGLJ4*01 (Fab, V domains shown)
VH: QVQLQQSGPGLVKPSQTLSLTCAISGDSVSSNSAAWNWIRQSPSRGLEWLGRTYYRSKWYNDYAVSVKSRITINPDTSKNQFSLQLNSVTPEDTAVYYCAREYYDFWSGYYTDYFDYWGQGTLVTVSS
VL: QPVLTQPTSLSASPGASARLTCTLRSGINLGSYRIFWYQQKPESPPRYLLSYYSDSSKHQGSGVPSRFSGSKDASSNAGILVISGLQSEDEADYYCMIWHSSASFVFGGGTQLIIL
notes: Tested as a Fab made in E. coli; also called IGHV6-1*01
An ECL signal [15] of 431, an ECL signal [16] of 442 and an ECL signal [17] of 938 were found for B3 in this work. The ECL signal [18] was 450 and the ECL signal [19] was 472.
